These results are taken from patent US6441131B1, “Peptides, method for assaying human pepsinogen II or human pepsin II, and assaying kit” (Ono Pharmaceutical Co., Ltd., priority 1997, dated 2002).

In one assay the target is human pepsin I (Homo sapiens, UniProt P0DJD7). The experiment in a line: Digesting of the peptide substrate by human pepsin I (assay by HPLC). The assay is classed as biochemical. The note with it: peptide 0.5 mM, tartaric acid or glycine buffer pH2.0, 37° C., released amino acid derivative (II-A) by HPLC. On the procedure:
(§1) Tartaric acid buffer or glycine buffer (pH2.0) containing each peptide (0.5 mM) prepared in Examples 1 and 2(3) etc. (Examples in Table 3 described hereinafter).
(§2) An aqueous solution of human pepsin I or human pepsin II (0.01 mg/ml)
(§3) Enzyme solution I (0.1 ml) was added to Reagent (1.0 ml). After incubation of the mixture at 37° C. for 10, 30, 60 minutes, the mixture solution (0.3 ml) was collected. To the collected solution, 2N-NaOH (0.025 ml) was added to terminate the reaction. After addition of 2N-HCl (0.025 ml) to the mixture, protein was removed by the ultrafiltration. The assaying the amino acid derivatives of the formula (II-A) [drawing 19]
(§4) which was released after digesting by human pepsin in the obtained solution was carried out by HPLC using C18 column. The ratio of digesting rate of pepsin II/pepsin I was calculated according to the result from assay by HPLC. Such assay is carried out to confirm that a substrate was digested by pepsin I or pepsin II correctly and that the amino acid derivatives of the formula (II-A) were released.

Another assay concerns the target T1, human pepsin II (Homo sapiens, UniProt P20142).
T1 sequence (P20142 60-388): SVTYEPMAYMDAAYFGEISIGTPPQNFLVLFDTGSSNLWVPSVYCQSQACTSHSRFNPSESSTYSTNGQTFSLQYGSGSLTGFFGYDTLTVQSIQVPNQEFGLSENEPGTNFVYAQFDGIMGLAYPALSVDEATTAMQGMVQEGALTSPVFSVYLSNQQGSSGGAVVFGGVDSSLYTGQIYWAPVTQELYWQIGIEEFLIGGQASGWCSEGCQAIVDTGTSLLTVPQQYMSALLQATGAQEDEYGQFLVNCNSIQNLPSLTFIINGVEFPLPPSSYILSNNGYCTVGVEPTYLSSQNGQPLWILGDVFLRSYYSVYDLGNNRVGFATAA
The experiment in a line: Digesting of the peptide substrate by human pepsin II (assay by HPLC). Conditions: for ration of digesting rate (pepsin II/ pepsin I): calculated from the HPLC digesting rates, pepsin II over pepsin I; for pepsin II digesting rate: peptide 0.5 mM, tartaric acid or glycine buffer pH2.0, 37° C., released amino acid derivative (II-A) by HPLC. The assay is classed as biochemical. On the procedure: as §1, §2, §3, §4

Non-standard residues stand in square brackets, D forms with d. No end group written: not given here. *: point of attachment. 2Nal = N[C@@H](Cc1ccc2ccccc2c1)C(=O)O; pNA = O=[N+]([O-])c1ccc(N*)cc1

Chain of human pepsin I (P0DJD7 63-388): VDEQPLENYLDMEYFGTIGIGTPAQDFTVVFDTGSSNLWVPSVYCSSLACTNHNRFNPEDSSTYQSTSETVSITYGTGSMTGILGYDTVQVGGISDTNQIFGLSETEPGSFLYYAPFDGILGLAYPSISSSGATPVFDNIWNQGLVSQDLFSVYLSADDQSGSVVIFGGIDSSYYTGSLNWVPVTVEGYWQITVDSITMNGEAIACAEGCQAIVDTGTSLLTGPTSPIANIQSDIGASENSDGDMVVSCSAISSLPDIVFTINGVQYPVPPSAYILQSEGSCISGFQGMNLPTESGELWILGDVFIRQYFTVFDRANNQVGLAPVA

Regarding “2(22): Q=Pro Gln Gln Asn; 2-Naphthyl; R4=Me; (EE)m single bond; Z=p-NA (PQQN[2Nal]A-pNA; not fully specified)”, in the assay with human pepsin I, the “pepsin I digesting rate” value was determined as 0.0578 μM/min · 1 μg Enz. In the assay with human pepsin II, the “ration of digesting rate (pepsin II/ pepsin I)” value (“ration of digesting rate” below) is given as 222.6 and the “pepsin II digesting rate” value is on record as 12.87 μM/min · 1 μg Enz.

Consider “2(24): Q=Pro Gln Gln Gly; 2-Naphthyl; R4=Me; (EE)m single bond; Z=p-NA (PQQG[2Nal]A-pNA; also: TFA salt)”, for which the “pepsin I digesting rate” value with human pepsin I is 0.0058 μM/min · 1 μg Enz. For the same substance, in the assay with human pepsin II, the “ration of digesting rate” value is 2081.6 and the “pepsin II digesting rate” value was 12.06 μM/min · 1 μg Enz.

Take “2(56): Q=Ser Leu Ser Glu; 2-Naphthyl; R4=Me; (EE)m single bond; Z=p-NA (SLSE[2Nal]A-pNA; also: TFMSA salt)”: the “pepsin I digesting rate” value with human pepsin I turned out to be 0.0194 μM/min · 1 μg Enz. Further, in the assay with human pepsin II, the “ration of digesting rate” value is given as 562.6 and the “pepsin II digesting rate” value amounted to 10.94 μM/min · 1 μg Enz.

On to “2(39): Q=Pro Met Ser Glu; 2-Naphthyl; R4=Me; (EE)m single bond; Z=p-NA (PMSE[2Nal]A-pNA; also: TFMSA salt)”, for which the “pepsin I digesting rate” value in the assay with human pepsin I turned out to be 0.2277 μM/min · 1 μg Enz. In the assay with human pepsin II, the “ration of digesting rate” value is reported as 201.1 and the “pepsin II digesting rate” value worked out at 45.79 μM/min · 1 μg Enz.

In the case of “2(53): Q=Gln Leu Ser Glu; 2-Naphthyl; R4=Me; (EE)m single bond; Z=p-NA (QLSE[2Nal]A-pNA; also: TFMSA salt)”, the “pepsin I digesting rate” value with human pepsin I was 0.0998 μM/min · 1 μg Enz. For the same substance, in the assay with human pepsin II, the “ration of digesting rate” value was 621.0 and the “pepsin II digesting rate” value stood at 61.96 μM/min · 1 μg Enz.

As for “2(23): Q=Pro Gln Gln Gln; 2-Naphthyl; R4=Me; (EE)m single bond; Z=p-NA (PQQQ[2Nal]A-pNA; also: TFA salt)”, the “pepsin I digesting rate” value in the assay with human pepsin I is reported as 0.0191 μM/min · 1 μg Enz. In addition, in the assay with human pepsin II, the “ration of digesting rate” value is recorded as 308.8 and the “pepsin II digesting rate” value was determined as 5.90 μM/min · 1 μg Enz.

For the substance “2(36): Q=Pro Asn Ser Glu; 2-Naphthyl; R4=Me; (EE)m single bond; Z=p-NA (PNSE[2Nal]A-pNA; also: TFMSA salt)”, the “pepsin I digesting rate” value with human pepsin I came out at 0.1096 μM/min · 1 μg Enz. Further, in the assay with human pepsin II, the “ration of digesting rate” value is on record as 193.5 and the “pepsin II digesting rate” value was 21.22 μM/min · 1 μg Enz.
